From patent publication US20210238260A1

Key:
[1] = molecular target: Antithrombin III (plasma purified human AT-III), in complex with unfractionated full-length heparin (human) (UniProt P01008); assay: inhibition of FIXa by AT-III/UFH, residual activity on Mesyl-D-CHG-Gly-Arg-AMC
[2] = molecular target: plasma purified human AT-III (antithrombin III) in complex with unfractionated heparin (human) (UniProt P01008); assay: residual FIXa activity on Mesyl-D-CHG-Gly-Arg-AMC after timed incubation with AT-III/UFH (0-500 nM AT-III, 1 uM UFH); kapp from K0.5

| Substance | kapp (second-order rate constant for inhibition) [1] | kapp (apparent second-order rate constant for inhibition) [2] |
| --- | --- | --- |
| BeneFIX Coagulation FIX (T148A), activated (FIXa) (from UniProt P00740 47-191; P00740 227-461) (enzyme) | 1.6e+07 M⁻¹ s⁻¹ |  |
| Catalyst Biosciences WT FIXa (from UniProt P00740 47-191; P00740 227-461) (enzyme) | 2.4e+07 M⁻¹ s⁻¹ |  |
| FIXa D85N/D203N/F205T (from UniProt P00740 47-191; P00740 227-461) (enzyme) | 2.7e+06 M⁻¹ s⁻¹ |  |
| FIXa D104N/K106S/N260S (from UniProt P00740 47-191; P00740 227-461) (enzyme) | 7e+06 M⁻¹ s⁻¹ |  |
| FIXa D104N/K106S/R318Y/R338E/E410N (from UniProt P00740 47-191; P00740 227-461) (enzyme) | 210000 M⁻¹ s⁻¹ |  |
| FIXa D203N/F205T (from UniProt P00740 47-191; P00740 227-461) (enzyme) | 810000 M⁻¹ s⁻¹ |  |
| FIXa D203N/F205T/E410N (from UniProt P00740 47-191; P00740 227-461) (enzyme) | 2e+06 M⁻¹ s⁻¹ |  |
| FIXa D203N/F205T/K228N (from UniProt P00740 47-191; P00740 227-461) (enzyme) | 1.1e+06 M⁻¹ s⁻¹ |  |
| FIXa D203N/F205T/R318Y (from UniProt P00740 47-191; P00740 227-461) (enzyme) | 61000 M⁻¹ s⁻¹ |  |
| FIXa D203N/F205T/R338A (from UniProt P00740 47-191; P00740 227-461) (enzyme) | 860000 M⁻¹ s⁻¹ |  |
| FIXa D203N/F205T/R338E (from UniProt P00740 47-191; P00740 227-461) (enzyme) | 360000 M⁻¹ s⁻¹ |  |
| FIXa D203N/F205T/R338E/R403E (from UniProt P00740 47-191; P00740 227-461) (enzyme) | 2000 M⁻¹ s⁻¹ |  |
| FIXa K228N/R318Y (from UniProt P00740 47-191; P00740 227-461) (enzyme) | 1.2e+06 M⁻¹ s⁻¹ |  |
| FIXa K228N/R338E/R403E (from UniProt P00740 47-191; P00740 227-461) (enzyme) | 42000 M⁻¹ s⁻¹ |  |
| FIXa K293A/R338A/R403A (from UniProt P00740 47-191; P00740 227-461) (enzyme) | 47000 M⁻¹ s⁻¹ |  |
| FIXa K293A/R403A (from UniProt P00740 47-191; P00740 227-461) (enzyme) | 81000 M⁻¹ s⁻¹ |  |
| FIXa K293E (from UniProt P00740 47-191; P00740 227-461) (enzyme) | 1.2e+06 M⁻¹ s⁻¹ |  |
| FIXa K293E/R338E/R403E (from UniProt P00740 47-191; P00740 227-461) (enzyme) | 31000 M⁻¹ s⁻¹ |  |
| FIXa N260S (from UniProt P00740 47-191; P00740 227-461) (enzyme) | 1.1e+06 M⁻¹ s⁻¹ |  |
| FIXa R312Y (from UniProt P00740 47-191; P00740 227-461) (enzyme) | 230000 M⁻¹ s⁻¹ |  |
| FIXa R318A (from UniProt P00740 47-191; P00740 227-461) (enzyme) | 690000 M⁻¹ s⁻¹ |  |

| Substance | kapp (second-order rate constant for inhibition) [1] | kapp (apparent second-order rate constant for inhibition) [2] |
| --- | --- | --- |
| FIXa R318A/R403A (from UniProt P00740 47-191; P00740 227-461) (enzyme) | 17000 M⁻¹ s⁻¹ |  |
| FIXa R318E (from UniProt P00740 47-191; P00740 227-461) (enzyme) | 16000 M⁻¹ s⁻¹ |  |
| FIXa R318Y (from UniProt P00740 47-191; P00740 227-461) (enzyme) | 640000 M⁻¹ s⁻¹ |  |
| FIXa R318Y/E410N (from UniProt P00740 47-191; P00740 227-461) (enzyme) | 1.1e+06 M⁻¹ s⁻¹ |  |
| FIXa R318Y/R338E/E410N (from UniProt P00740 47-191; P00740 227-461) (enzyme) | 280000 M⁻¹ s⁻¹ |  |
| FIXa R318Y/R338E/R403E (from UniProt P00740 47-191; P00740 227-461) (enzyme) | 1200 M⁻¹ s⁻¹ |  |
| FIXa R338A/R403A (from UniProt P00740 47-191; P00740 227-461) (enzyme) | 840000 M⁻¹ s⁻¹ |  |
| FIXa R338E (from UniProt P00740 47-191; P00740 227-461) (enzyme) | 270000 M⁻¹ s⁻¹ |  |
| FIXa R338E/E410N (from UniProt P00740 47-191; P00740 227-461) (enzyme) | 6.3e+06 M⁻¹ s⁻¹ |  |
| FIXa R338E/R403E (from UniProt P00740 47-191; P00740 227-461) (enzyme) | 68000 M⁻¹ s⁻¹ |  |
| FIXa R338E/R403E/E410N (from UniProt P00740 47-191; P00740 227-461) (enzyme) | 130000 M⁻¹ s⁻¹ |  |
| FIXa R403A (from UniProt P00740 47-191; P00740 227-461) (enzyme) | 1.4e+06 M⁻¹ s⁻¹ |  |
| FIXa R403E (from UniProt P00740 47-191; P00740 227-461) (enzyme) | 110000 M⁻¹ s⁻¹ |  |
| FIXa R403E/E410N (from UniProt P00740 47-191; P00740 227-461) (enzyme) | 4.8e+06 M⁻¹ s⁻¹ |  |
| FIXa T148A (from UniProt P00740 47-191; P00740 227-461) (enzyme) | 1.6e+07 M⁻¹ s⁻¹ |  |
| FIXa Y155F/R318Y/R338E/R403E (from UniProt P00740 47-191; P00740 227-461) (enzyme) | 1000 M⁻¹ s⁻¹ |  |
| FIXa Y155F/R338E/R403E/E410N (from UniProt P00740 47-191; P00740 227-461) (enzyme) | 32000 M⁻¹ s⁻¹ |  |
| FIXa-D104N/K106S/K228N/K247N/N249S/R318Y/R338E/R403E/E410N (from UniProt P00740 47-191; P00740 227-461) (enzyme) |  | 680 M⁻¹ s⁻¹ |
| FIXa-D104N/K106S/K247N/N249S/N260S (from UniProt P00740 47-191; P00740 227-461) (enzyme) |  | 1.7e+06 M⁻¹ s⁻¹ |
| FIXa-D104N/K106S/N260S/R318Y/R338E/R403E/E410N (from UniProt P00740 47-191; P00740 227-461) (enzyme) |  | 2100 M⁻¹ s⁻¹ |
| FIXa-D104N/K106S/R318Y/R338E/T343R/R403E/E410N (from UniProt P00740 47-191; P00740 227-461) (enzyme) |  | 9100 M⁻¹ s⁻¹ |

| Substance | kapp (second-order rate constant for inhibition) [1] | kapp (apparent second-order rate constant for inhibition) [2] |
| --- | --- | --- |
| FIXa-K228N/K247N/N249S/R318Y/R338E/R403E/E410N (from UniProt P00740 47-191; P00740 227-461) (enzyme) |  | 1100 M⁻¹ s⁻¹ |
| FIXa-K247N/N249S/N260S/R318Y/R338E/R403E/E410N (from UniProt P00740 47-191; P00740 227-461) (enzyme) |  | 1300 M⁻¹ s⁻¹ |
| FIXa-K247N/N249S/R318Y/R338E/R403E (from UniProt P00740 47-191; P00740 227-461) (enzyme) |  | 310 M⁻¹ s⁻¹ |
| FIXa-K247N/N249S/R318Y/R403E/E410N (from UniProt P00740 47-191; P00740 227-461) (enzyme) |  | 2700 M⁻¹ s⁻¹ |
| FIXa-K247N/N249S/R338E/R403E/E410N (from UniProt P00740 47-191; P00740 227-461) (enzyme) |  | 21000 M⁻¹ s⁻¹ |
| FIXa-N260S/R318Y/R338E/R403E/E410N (from UniProt P00740 47-191; P00740 227-461) (enzyme) |  | 4400 M⁻¹ s⁻¹ |
| FIXa-R318Y/R338E/E410S (from UniProt P00740 47-191; P00740 227-461) (enzyme) |  | 720000 M⁻¹ s⁻¹ |
| FIXa-R318Y/R338E/N346D/R403E/E410N (from UniProt P00740 47-191; P00740 227-461) (enzyme) |  | 1100 M⁻¹ s⁻¹ |
| FIXa-R318Y/R338E/N346Y/R403E/E410N (from UniProt P00740 47-191; P00740 227-461) (enzyme) |  | 2800 M⁻¹ s⁻¹ |
| FIXa-R318Y/R338E/R403E/E410N/T412A (from UniProt P00740 47-191; P00740 227-461) (enzyme) |  | 3800 M⁻¹ s⁻¹ |
| FIXa-R318Y/R338E/R403E/E410N/T412V (from UniProt P00740 47-191; P00740 227-461) (enzyme) |  | 2900 M⁻¹ s⁻¹ |
| FIXa-R318Y/R338E/R403E/T412A (from UniProt P00740 47-191; P00740 227-461) (enzyme) |  | 1600 M⁻¹ s⁻¹ |
| FIXa-R318Y/R338E/T343R/N346D/R403E/E410N (from UniProt P00740 47-191; P00740 227-461) (enzyme) |  | 5100 M⁻¹ s⁻¹ |
| FIXa-R318Y/R338E/T343R/N346Y/R403E/E410N (from UniProt P00740 47-191; P00740 227-461) (enzyme) |  | 11000 M⁻¹ s⁻¹ |
| FIXa-R318Y/R338E/T343R/R403E/E410N (from UniProt P00740 47-191; P00740 227-461) (enzyme) |  | 32000 M⁻¹ s⁻¹ |
| FIXa-R318Y/R338E/T412A (from UniProt P00740 47-191; P00740 227-461) (enzyme) |  | 350000 M⁻¹ s⁻¹ |
| FIXa-R318Y/R338E/Y345A/R403E/E410N (from UniProt P00740 47-191; P00740 227-461) (enzyme) |  | 7900 M⁻¹ s⁻¹ |
| FIXa-T343R/N346D (from UniProt P00740 47-191; P00740 227-461) (enzyme) |  | 1.3e+06 M⁻¹ s⁻¹ |
| FIXa-T343R/N346Y (from UniProt P00740 47-191; P00740 227-461) (enzyme) |  | 4.2e+06 M⁻¹ s⁻¹ |
